Experimental data from patent US20220411487A1 (Regeneron, published 2022).
Substitutions are numbered along the chain they refer to. Numbers in names are those of the source.

B1: REGN7969 (antibody, human IgG4 S228P, kappa, V domains shown)
VH: QVQLVESGGGVVQPGRSLRLSCAASGFTFNNYGMHWVRQAPGKGLEWVAIISYDGSNEYYSDSVKGRFTISRDNSKNTLYLQMNSLRAEDTAVYYCARDQDYGGNLFHYWGQGTLVTVSS
VL: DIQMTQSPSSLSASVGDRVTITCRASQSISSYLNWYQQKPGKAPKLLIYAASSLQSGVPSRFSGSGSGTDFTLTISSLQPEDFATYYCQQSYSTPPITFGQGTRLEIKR
notes: fully human; human IgG4 Fc with hinge S108P; also called mAb37746
B2: REGN7971 (antibody, human IgG4 S228P, kappa, V domains shown)
VH: B1 VH with N30S, N31T, E58D, S61L, S85N, R98K, D101G, H108A, Y109S
VL: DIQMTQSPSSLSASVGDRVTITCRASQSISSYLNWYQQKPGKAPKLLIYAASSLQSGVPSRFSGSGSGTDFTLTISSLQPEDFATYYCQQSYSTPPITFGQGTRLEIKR
notes: fully human; human IgG4 Fc with hinge S108P; also called mAb37763
B3: REGN8023 (antibody, human IgG4 S228P, kappa, V domains shown)
VH: EVQLVESGGGLVKPGGSLRISCAASGFIFVDYAMHWVRQAPGKGLEWVSGISWNSGSIGYADSVKGRFTISRDNAKKSLYLQMSGLRPEDTALYYCVKSGFYYVRSYFDNWGQGTLVTVSS
VL: DIVMTQSPLSLPVTPGEPASISCRSSQSLLDSDDGNTYLDWYLRKPGQSPQLLIYTLSYRASGVPDRFSGSGSGTDFTLKISRVEADDVGVYYCMQRIEFPLTFGGGTKVEIKR
notes: fully human; human IgG4 Fc with hinge S108P; also called mAb37699
B4: REGN7977 (antibody, V domains shown)
VH: EVQLVESGGGLVKPGGSLRVSCAASGVTFSNVWMSWVRQVPGKGLEWVGRIKSKTDGGTTDYAAPVKGRFTISKDDSKNTLFLQMNSLKTEDTAVYYCTTETGDFWSGYYPRFQHWGQGTLVTVSS
VL: DIQMTQSPSSLSASVGDRVTITCRASQYISTYLNWYQQKPGKAPSLLIYAASSLQSGVPSRFSGSGSGTDFTLTISSLQPEDFASYSCQQSYSTPPYTFGQGTKLEIKR
notes: fully human; human IgG4 Fc with hinge S108P; also called mAb41465
B5: REGN7974 (antibody, human IgG4 S228P, kappa, V domains shown)
VH: EVQLVESGGGLVQPGRSLRLSCIASGFNFGDYGMSWVRQAPGKGLEWVGFIRSKAYGGTTEYAASVKGRFTISRDDSKSIAYLQMNSLKTEDAAMYYCSRDYYDILTGYYGDYWGQGTLVTVSS
VL: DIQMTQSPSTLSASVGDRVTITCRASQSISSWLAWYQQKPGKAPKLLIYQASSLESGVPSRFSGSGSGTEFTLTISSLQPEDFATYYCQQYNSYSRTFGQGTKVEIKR
notes: fully human; human IgG4 Fc with hinge S108P; also called mAb41422
B6: REGN7999 (antibody, human IgG4 S228P, kappa, V domains shown)
VH: EVQLVESGGGLVQPGGSLRLSCAASGFTFSSYAMTWVRQAPGKGLEWVSAISGSDTSTYYADSVKGRFTISRDNSKNTLFLQMNSLRAEDTAVYYCAKHQDYDFSYYYSAMDVWGQGTTVTVSS
VL: DIQMTQSPSSLSASVGDRVIITCRASQDFNSWLAWYQQKPGKAPKLLIYAASSLQSGVPSRFSGSGSGTDFTLTISSLQPEDFATYYCQQTDSFPFTFGPGTKVDIKR
notes: fully human; human IgG4 Fc with hinge S108P; also called mAb41450

The binders below were run against T1, full length human TMPRSS6 with a C-terminal triple myc tag on HEK293.hHJV cells (HEK293.hHJV/3xMyc.hTMPRSS6) (human, UniProt Q8IU80 1-811) (assay: cell-based or functional assay).
T1 sequence: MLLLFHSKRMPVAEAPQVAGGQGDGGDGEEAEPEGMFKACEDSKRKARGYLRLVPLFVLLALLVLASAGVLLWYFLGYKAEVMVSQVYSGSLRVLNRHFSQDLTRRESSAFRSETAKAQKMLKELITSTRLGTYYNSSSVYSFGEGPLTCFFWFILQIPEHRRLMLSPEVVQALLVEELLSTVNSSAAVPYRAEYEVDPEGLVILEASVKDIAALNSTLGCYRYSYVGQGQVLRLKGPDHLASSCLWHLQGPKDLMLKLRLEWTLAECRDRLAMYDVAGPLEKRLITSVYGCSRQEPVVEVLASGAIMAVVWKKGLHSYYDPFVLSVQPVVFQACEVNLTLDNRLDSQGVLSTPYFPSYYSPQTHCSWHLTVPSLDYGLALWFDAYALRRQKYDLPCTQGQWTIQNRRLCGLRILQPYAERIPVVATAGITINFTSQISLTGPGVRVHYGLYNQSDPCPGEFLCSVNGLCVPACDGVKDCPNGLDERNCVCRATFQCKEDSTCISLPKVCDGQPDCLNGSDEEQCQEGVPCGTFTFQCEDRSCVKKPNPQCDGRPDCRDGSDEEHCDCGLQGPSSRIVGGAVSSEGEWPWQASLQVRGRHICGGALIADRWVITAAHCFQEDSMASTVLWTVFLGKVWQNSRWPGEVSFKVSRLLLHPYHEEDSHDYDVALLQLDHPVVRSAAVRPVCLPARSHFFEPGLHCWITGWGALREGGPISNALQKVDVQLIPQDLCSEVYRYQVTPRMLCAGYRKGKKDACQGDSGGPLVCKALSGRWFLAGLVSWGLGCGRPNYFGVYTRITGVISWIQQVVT

B1 and B2 are within 1.5-fold of each other in “IC50, soluble hHJV release (ELISA)” value: 0.0712 nM for the first, 0.0774 nM for the second.

B3 and B4 are within 1.5-fold of each other in “IC50, soluble hHJV release (ELISA)” value: 0.149 nM for the first, 0.127 nM for the second.

Going from B5 to B6, the “IC50, soluble hHJV release (ELISA)” value falls from 0.154 nM to 0.102 nM (1.5-fold).

Going from B1 to B2, the “Inhibition (%) of soluble hHJV release (ELISA)” value (“Inhibition (%)” below) falls from > 99% to 89.9%.

B3 and B4 cannot be ordered by “Inhibition (%)” value: > 99% for the first, > 99% for the second.

B5 and B6 cannot be ordered by “Inhibition (%)” value: > 99% for the first, > 99% for the second.

Each binder was assayed against T2, full-length mouse TMPRSS6 with a C-terminal triple myc tag on HEK293.hHJV cells (HEK293.hHJV/3xMyc.mTMPRSS6) (mouse, UniProt Q9DBI0 1-811) (assay: cell-based or functional assay).
T2 sequence: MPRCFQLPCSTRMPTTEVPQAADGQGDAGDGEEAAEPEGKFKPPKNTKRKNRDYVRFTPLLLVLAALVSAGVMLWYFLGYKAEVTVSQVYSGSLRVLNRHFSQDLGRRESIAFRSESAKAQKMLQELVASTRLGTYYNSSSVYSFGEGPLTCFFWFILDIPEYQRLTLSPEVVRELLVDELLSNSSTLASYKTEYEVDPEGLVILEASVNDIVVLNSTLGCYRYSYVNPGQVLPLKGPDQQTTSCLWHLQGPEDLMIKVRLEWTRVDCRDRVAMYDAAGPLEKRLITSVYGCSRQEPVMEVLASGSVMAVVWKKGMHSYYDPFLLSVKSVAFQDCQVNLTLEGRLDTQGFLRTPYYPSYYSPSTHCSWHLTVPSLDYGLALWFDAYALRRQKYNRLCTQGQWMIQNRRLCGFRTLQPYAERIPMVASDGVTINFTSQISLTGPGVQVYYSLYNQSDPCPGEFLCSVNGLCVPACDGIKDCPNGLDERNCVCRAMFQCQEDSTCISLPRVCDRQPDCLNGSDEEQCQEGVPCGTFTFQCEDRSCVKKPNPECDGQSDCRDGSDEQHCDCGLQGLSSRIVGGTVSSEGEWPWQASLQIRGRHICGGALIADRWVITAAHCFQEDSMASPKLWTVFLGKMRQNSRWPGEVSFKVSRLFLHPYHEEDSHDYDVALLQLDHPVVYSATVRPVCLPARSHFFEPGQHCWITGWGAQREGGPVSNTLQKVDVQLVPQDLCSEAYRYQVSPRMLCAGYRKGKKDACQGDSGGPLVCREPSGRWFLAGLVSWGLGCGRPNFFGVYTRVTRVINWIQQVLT

Going from B1 to B2, the “Inhibition (%)” value rises from < 1% to 10.2%.

Compared with B3, B4 is higher in “Inhibition (%)” value: 42% for the first, 46.4% for the second.

First: B5
Second: B6
The “Inhibition (%)” value of the first is lower: 11.8% for the first, 98.5% for the second.

Compared with B3, B6 is 3.3-fold lower in “IC50, soluble hHJV release (ELISA)” value: 0.274 nM for the first, 0.0826 nM for the second.

Each binder was assayed against T3, full length human TMPRSS6 on HEK293 cells (HEK293/hTMPRSS6) (human, UniProt Q8IU80 10-811) (assay: cell-based or functional assay).
T3 sequence (looked up): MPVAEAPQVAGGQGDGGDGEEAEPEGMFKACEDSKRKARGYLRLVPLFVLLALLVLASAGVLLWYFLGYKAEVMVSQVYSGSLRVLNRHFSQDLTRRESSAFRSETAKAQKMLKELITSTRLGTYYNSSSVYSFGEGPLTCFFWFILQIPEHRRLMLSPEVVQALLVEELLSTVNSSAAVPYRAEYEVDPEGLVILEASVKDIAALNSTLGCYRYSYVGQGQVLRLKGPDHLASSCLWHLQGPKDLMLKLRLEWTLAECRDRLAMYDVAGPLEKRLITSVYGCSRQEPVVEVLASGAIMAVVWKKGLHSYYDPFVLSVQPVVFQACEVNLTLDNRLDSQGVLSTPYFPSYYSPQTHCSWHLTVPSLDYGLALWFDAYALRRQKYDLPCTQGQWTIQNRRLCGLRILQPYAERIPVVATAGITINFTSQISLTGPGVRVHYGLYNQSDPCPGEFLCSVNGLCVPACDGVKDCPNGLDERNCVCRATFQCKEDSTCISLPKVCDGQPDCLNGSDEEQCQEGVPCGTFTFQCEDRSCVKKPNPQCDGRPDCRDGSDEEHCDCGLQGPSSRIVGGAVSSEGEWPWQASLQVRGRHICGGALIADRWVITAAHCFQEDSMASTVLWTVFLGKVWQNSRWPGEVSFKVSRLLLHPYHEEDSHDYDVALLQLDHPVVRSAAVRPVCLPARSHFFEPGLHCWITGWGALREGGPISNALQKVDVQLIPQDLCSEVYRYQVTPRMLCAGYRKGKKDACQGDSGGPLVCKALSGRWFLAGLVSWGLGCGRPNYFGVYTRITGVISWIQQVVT

Going from B1 to B2, the “% inhibition, HEK293 bioassay, overnight pre-incubation 37 C” value (shortened to “% inhibition, HEK293 bioassay”) rises from 88% to 90%.

Compared with B3, B4 is lower in “% inhibition, HEK293 bioassay” value: 90% for the first, 87% for the second.

Going from B5 to B6, the “% inhibition, HEK293 bioassay” value rises from 86% to 89%.

B1 and B2 are within 1.5-fold of each other in “IC50, HEK293 bioassay, overnight pre-incubation 37 C” value (“IC50, HEK293 bioassay” for short): 1.2 nM for the first, 1.4 nM for the second.

Compared with B3, B4 is 1.5-fold higher in “IC50, HEK293 bioassay” value: 1.1 nM for the first, 1.7 nM for the second.

B5 and B6 are within 1.5-fold of each other in “IC50, HEK293 bioassay” value: 2.6 nM for the first, 2.1 nM for the second.
